± gives the standard error. Variants at the floor of the assay were thinned out.
B1: glmS ribozyme (parent)
chain: AUAAAAGCGCCAGAACUACAGAAAUGUAGUUGACGAGGAGGAGGUUUAUCGAAUUUUCGGCGGAUGCCUCCAAA

Legend:
Details in all cases: with glucosamine-6-phosphate
glucosamine-6-phosphate [1] = variants of: B1; assay: self-cleavage kobs at 40 uM GlcN6P; higher = faster cleavage; RNA array
Procedure, shortened: (§1)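 On sequenced MiSeq chips, barcoded ribozyme variants were made in situ by E. coli RNA polymerase and followed at 37 °C through a hybridised Cy3 probe. Glucosamine-6-phosphate was flowed in at 40 μM to 10 mM in HEPES/KCl/Mg(OAc)2 buffer. Exponential fits to normalised per-tile medians gave kobs, and weighted Michaelis–Menten fits gave kcat and KM.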

glucosamine-6-phosphate [2] = variants of: B1; assay: self-cleavage kobs at 2500 uM GlcN6P; higher = faster cleavage; RNA array
Procedure, shortened: as §1

glucosamine-6-phosphate [3] = variants of: B1; assay: self-cleavage kobs at 160 uM GlcN6P; higher = faster cleavage; RNA array
Procedure, shortened: as §1

glucosamine-6-phosphate [4] = variants of: B1; assay: self-cleavage kobs at 640 uM GlcN6P; higher = faster cleavage; RNA array
Procedure, shortened: as §1

glucosamine-6-phosphate [5] = variants of: B1; assay: self-cleavage kobs at 10000 uM GlcN6P; higher = faster cleavage; RNA array
Procedure, shortened: as §1

Variant | self-cleavage kobs at 40 uM GlcN6P (glucosamine-6-phosphate [1]) [s⁻¹] | self-cleavage kobs at 2500 uM GlcN6P (glucosamine-6-phosphate [2]) [s⁻¹] | self-cleavage kobs at 160 uM GlcN6P (glucosamine-6-phosphate [3]) [s⁻¹] | self-cleavage kobs at 640 uM GlcN6P (glucosamine-6-phosphate [4]) [s⁻¹] | self-cleavage kobs at 10000 uM GlcN6P (glucosamine-6-phosphate [5]) [s⁻¹]
C16G G44U U65A | < 1e-05 | < 1e-05 | – | – | –
C16A C61U | < 1e-05 | < 1e-05 | < 1e-05 | < 1e-05 | < 1e-05
C16U U45A | 0.00211 ± 0.00039 | 0.0183 ± 0.0057 | – | 0.0159 ± 0.003 | 0.0689 ± 0.015
G29A C34U | < 1e-05 | – | – | – | –
C16U G63C | < 1e-05 | – | – | < 1e-05 | < 1e-05
C16A C71U | 5.08e-05 ± 8.3e-06 | 0.000355 ± 5.3e-05 | 0.000159 ± 3.6e-05 | 0.000293 ± 3.5e-05 | 0.00133 ± 0.00014
C16G C34G G44U C50U U69C | < 1e-05 | – | – | – | –
G29C G32U C34A C50G U65G C68G | 8.78e-05 ± 3.1e-05 | 0.000304 ± 7.2e-05 | 0.000304 ± 5.8e-05 | 8.65e-05 ± 2.9e-05 | 4.42e-05 ± 1.7e-05
C16U A36U A64G | < 1e-05 | – | – | – | –
G29C C67U | 2.43e-05 ± 8.3e-06 | 0.000201 ± 2.6e-05 | – | 0.000126 ± 1.3e-05 | 0.000975 ± 0.0002
C16G G35A U56G G63C | < 1e-05 | – | – | – | < 1e-05
C16U G44U U57A C68A | < 1e-05 | < 1e-05 | < 1e-05 | < 1e-05 | < 1e-05
C19A G29U C58A C67G | 3.09e-05 ± 1.3e-05 | – | – | – | 6.68e-05 ± 1.4e-05
C19A C50G | 5.77e-05 ± 2.2e-05 | 6.17e-05 ± 2.2e-05 | 0.000364 ± 9.5e-05 | 0.000594 ± 0.00013 | 4.18e-05 ± 1.5e-05
G29C G60A | < 1e-05 | < 1e-05 | < 1e-05 | – | < 1e-05
G29A A39C G59U | < 1e-05 | – | – | – | –
G29U G41U G51A | < 1e-05 | < 1e-05 | – | – | –
C16A G29U U30G U49G C70U | < 1e-05 | – | – | – | –
G21U U30C U57C G66C C67U | < 1e-05 | – | – | – | –
C16U U49G G59C G62U C67A | < 1e-05 | – | – | – | –
G29U C50G | 5.51e-05 ± 1.5e-05 | – | 0.000992 ± 0.0003 | 5.49e-05 ± 1.4e-05 | –
C16U G51A | < 1e-05 | – | < 1e-05 | – | –
G21A C70A | 3.65e-05 ± 1.8e-05 | 7.55e-05 ± 1.5e-05 | – | – | 0.000262 ± 6.9e-05
G29U A36U A52G | < 1e-05 | – | – | – | –
C16U A53U | 0.00056 ± 5.9e-05 | 0.00594 ± 0.0012 | 0.000815 ± 0.00015 | 0.00552 ± 0.00076 | 0.0301 ± 0.0055

Variant | self-cleavage kobs at 40 uM GlcN6P (glucosamine-6-phosphate [1]) [s⁻¹] | self-cleavage kobs at 2500 uM GlcN6P (glucosamine-6-phosphate [2]) [s⁻¹] | self-cleavage kobs at 160 uM GlcN6P (glucosamine-6-phosphate [3]) [s⁻¹] | self-cleavage kobs at 640 uM GlcN6P (glucosamine-6-phosphate [4]) [s⁻¹] | self-cleavage kobs at 10000 uM GlcN6P (glucosamine-6-phosphate [5]) [s⁻¹]
G29A G51A | < 1e-05 | – | – | – | < 1e-05
G29U G32C C61G | < 1e-05 | – | – | – | < 1e-05
C16A G44A | < 1e-05 | – | < 1e-05 | – | –
C16A G44U | < 1e-05 | – | < 1e-05 | < 1e-05 | –
C16G G29U G32A | 7.82e-05 ± 1.9e-05 | – | – | – | 0.0042 ± 0.0009
G21U G32A C50G U57G C70G | 0.000174 ± 3.9e-05 | – | – | – | 0.000301 ± 6.1e-05
C16A G62C | < 1e-05 | < 1e-05 | < 1e-05 | < 1e-05 | < 1e-05
C16A U57G | < 1e-05 | – | – | – | –
G21U U31A | 0.000447 ± 9.2e-05 | 0.0102 ± 0.0025 | 0.00108 ± 0.0003 | 0.00614 ± 0.0013 | 0.042 ± 0.018
G29U G41A C58U | < 1e-05 | – | – | – | < 1e-05
G26A C67U | 0.000613 ± 0.00023 | – | – | – | –
C16A U31A U47C G63A | < 1e-05 | – | – | – | –
C16U U45C A48U C68U | < 1e-05 | – | – | – | –
G29A U56C G59A C71A | < 1e-05 | – | – | – | < 1e-05
C16A A48G | < 1e-05 | < 1e-05 | – | < 1e-05 | < 1e-05
C16G G29U C71U | 0.000193 ± 4.3e-05 | 0.00344 ± 0.0014 | – | 0.00358 ± 0.00079 | 0.013 ± 0.0037
G29A A53U C58G | < 1e-05 | – | – | – | 5.28e-05 ± 2.2e-05
G29C A42C G43C U54A | < 1e-05 | – | – | – | –
G21U A39G | 0.00105 ± 0.00032 | – | – | – | –
C16G G37A G40A A48G | < 1e-05 | – | – | – | < 1e-05
G29C U54A | 6.64e-05 ± 1.5e-05 | 0.000928 ± 0.00025 | – | 0.000499 ± 8.4e-05 | 0.00381 ± 0.00046
G29U G38U U55G | < 1e-05 | < 1e-05 | – | – | < 1e-05
G29C G44U | < 1e-05 | – | < 1e-05 | < 1e-05 | –
G29C G63U | < 1e-05 | < 1e-05 | – | – | < 1e-05

Source: the supplement of paper PMC7125110
